Assay results reported in patent publication US7807162B2, “Single domain VHH antibodies against von Willebrand factor” (Ablynx N.V., priority 2005, dated 2010).
Where a chain is given by its changes, count along the chain named. Where “and” joins values, the source holds several entries; their conditions need not be identical. Equal values may be shown once.

Assays:
[1] = system: cyclic flow reductions (CFRs) in injured, stenosed femoral artery; assay: Folts thrombosis model in baboons: length/inhibition of cyclic flow reductions (CFRs); type: in vivo, baboon (Papio ursinus)
Description: The study protocol that was applied is the original Folts model and some modifications described below (Folts J D, et al, Circulation. 1976; 54:365-370). Healthy male or female baboons (Papio ursinus) were used. The animals were 8-17 kg of weight and were disease-free for at least 2 weeks prior to use. The baboons were fed with dry standard food only. The baboons were used at different time points. […] Animals were anaesthetized and body temperature is maintained at 37° C. with a heating table. A segment of a femoral artery was dissected free from surrounding tissue. A shunt was placed between the femoral vein and femoral artery to obtain high shear rates. The mean and phasic blood flow was recorded continuously throughout the experiment. Baseline flow was recorded for 20 minutes. […] A clamp was placed over the injured site to create an external stenosis. A gradual decline in blood flow due to platelet adhesion and aggregation was observed. When flow was reduced to zero, blood flow was restored by opening the clamp to dislodge the platelet-rich thrombus. This repetitive pattern of decreasing blood flow following mechanical restoration is referred to as cyclic flow reductions (CFRs). Additional endothelial injury was repeated if needed to finally obtain stable CFRs in these baboons. The number of times the thrombus needed to be dislodged determines the number of CFRs. FIG. 24 illustrates blood flow pattern during the Folts model in baboons. […] This procedure was repeated for several times with escalating doses of the test substance. The anti-thrombotic effect was quantified by comparing the length of CFRs before and after drug administration. When full inhibition of CFRs was observed, a new injury was applied in order to confirm that the inhibition was an effect of the treatment but not of a natural healing phenomenon.

[2] = system: platelet adhesion to collagen type III; assay: Inhibition of platelet adhesion by nanobodies in a flow (perfusion) chamber; type: cell-based, human; settings: for % Platelet adhesion at 2 μg/ml: human blood, collagen type III, wall shear rate 1600 s^−1
Description: The protein samples were analysed in a perfusion chamber. Thermanox coverslips (Nunc) were soaked overnight in 80% ethanol, rinsed thoroughly with distilled water and air-dried. Human placental collagen type III (Sigma) was solubilized in 0.05 mol/l acetic acid and sprayed on the coverslips at a final density of 30 μg/cm^2 with a retouching airbrush. After spraying the coverslips were blocked with 1% human albumin solution in PBS for at least 1 hour at RT. Perfusions were performed with a single-pass perfusion chamber under non-pulsatile flow conditions using a modified small perfusion chamber with a slit height of 0.1 mm and a slit width of 2 mm. Blood was obtained by venipuncture from healthy volunteers and anti-coagulated with Penta/PPACK. Triplicate coverslips were inserted into the chamber. […] After a perfusion run, the coverslip was taken from the chamber, rinsed in Hepes buffered saline (10 mM Hepes, 150 mM NaCL, ph 7.4), fixed in 0.5% glutaraldehyde in PBS, dehydrated in methanol and stained with May-Grünwald and Giemsa (Riedel de Haën). Platelet deposition was evaluated as platelet surface coverage using light microscopy and computer-assisted analysis.

[3] = number of experiments with inhibition / total number of independent repeats

Question: Which “Length of CFRs” value ([1]; Aspegic final dose 1 mg/kg, individual baboons 3, 4, 5, 1 mg/kg) does the source give for `CC(=O)Oc1ccccc1C(=O)O` [Aspegic] here?
Answer: 149 s and 164 s and 135 s

Question: What about the “Length of CFRs” value ([1]; Aspegic final dose 2.5 mg/kg, individual baboons 3, 4, 5, 2.5 mg/kg) of the same molecule?
Answer: 102 s and 325 s and 115 s

Question: What about the “Length of CFRs” value ([1]; Aspegic final dose 5 mg/kg, individual baboons 3, 4, 5, 5 mg/kg) of the same molecule?
Answer: 102 s and 1800 s and 245 s

Question: And the “Length of CFRs” value ([1]; Aspegic final dose 10 mg/kg, individual baboons 3, 4, 5, 10 mg/kg)?
Answer: 113 s and 905 s and 156 s

Question: And the “Length of CFRs” value ([1]; Aspegic final dose 20 mg/kg, individual baboons 3, 4, 5, 20 mg/kg)?
Answer: 125 s and 657 s and 169 s

Question: What about the “Length of CFRs” value ([1]; Aspegic final dose 40 mg/kg, individual baboons 3, 5, 40 mg/kg) of the same molecule?
Answer: 110 s and 145 s

Question: And the “Length of CFRs” value ([1]; Aspegic final dose 80 mg/kg, baboon 3)?
Answer: 129 s

Question: What about the “Length of CFRs” value ([1]; Aspegic-treated, after Epinephrin, baboon 4) of the same molecule?
Answer: 161 s

Question: And the “Inhibition of CFRs” value ([1]; baboon 3 and 5, doses as high as 80 and 40 mg/kg respectively)?
Answer: no inhibition of CFRs could be obtained

Question: And the “dose at which full inhibition of CFRs was obtained” value ([1]; baboon 4)?
Answer: 5 mg/kg

Question: And the “mean length of the CFRs versus before administration” value ([1]; baboon 4, higher doses and upon new injury, CFRs returned)?
Answer: 3-4 times

Question: And the “Inhibition of CFRs” value [1, 3]?
Answer: 0/3

Question: And the “Inhibition of CFRs after administration of Epinephrin” value [1, 3]?
Answer: 0/1

Question: And the “Inhibition of CFRs after new injury” value [1, 3]?
Answer: 0/3

B1: 12A5: anti-vWF nanobody, SEQ ID NO: 60 (protein)
VHH: AVQLVESGGGLVQPGGSLRLSCLASGRIFSIGAMGMYRQAPGKQRELVATITSGGSTNYADPVKGRFTISRDGPKNTVYLQMNSLKPEDTAVYYCYANLKQGSYGYRFNDYWGQGTQVTVSS
Question: With B1 as the molecule, how does the “% Platelet adhesion” value ([2]; 0.2 μg/ml nanobody, Table 15) read?
Answer: 50 ± 7%

Question: And the “% Platelet adhesion” value ([2]; 0.4 μg/ml nanobody, Table 15)?
Answer: 27 ± 10%

Question: And the “% Platelet adhesion” value ([2]; 0.6 μg/ml nanobody, Table 15)?
Answer: 2 ± 2%

Question: What about the “% Platelet adhesion at 2 μg/ml” value ([2]; 2 μg/ml nanobody) of the same molecule?
Answer: 10 ± 3%

Question: And the “inhibition of platelet adhesion to collagen type III” value ([2]; perfusion chamber at high shear rate)?
Answer: clearly inhibit platelet adhesion

Question: What about the “concentration with full inhibition of platelet adhesion” value ([2]; tested at 0.2, 0.4 and 0.6 μg/ml, same donor) of the same molecule?
Answer: 0.6 µg/mL

B2: 12C9: anti-vWF nanobody, SEQ ID NO: 65 (protein)
VHH: AVQLVESGGGLVQPGGSLKLSCATSGSIFSSSAMAWYRQASGKQRELVATITSGGRTSYADSVKGRFTISRDNAKNTVYLQMNSLKPEDTAVYDCNFVVDGKRAPWGQGTQVTVSS
Question: With B2 as the molecule, how does the “% Platelet adhesion at 2 μg/ml” value ([2]; 2 μg/ml nanobody) read?
Answer: 68 ± 8%

B3: 14F8: anti-vWF nanobody, SEQ ID NO: 66 (protein)
VHH: AVQLVESGGGLVQAGESLRLSCTSSGRAFSYYNTGWFRQAPGKEREFVAAISWSGGLTYYADSVKGRFTISRDNAKDMVYLQMASLKPEDTAVYYCAANRRQKTVQMGERAYDYWGQGTQVTVSS
Question: For B3, which “% Platelet adhesion at 2 μg/ml” value ([2]; 2 μg/ml nanobody) is on record?
Answer: 51 ± 10%

B4: 12B1: anti-vWF nanobody, SEQ ID NO: 61 (protein)
VHH: QVQLVESGGGLVQAGGSLRLSCAASGRTFSNYGMGWFRQAPGKEREFVTSISWSGTYTAYSDNVKGRFTISRDNAKNTVYLQMDSLKPEDTAVYYCAAQSRYRSNYYDHDDKYAYWGQGTQVTVSS
Question: How did the “% Platelet adhesion at 2 μg/ml” value ([2]; 2 μg/ml nanobody) turn out when B4 was run?
Answer: 56 ± 3%

B5: 12D11: anti-vWF nanobody, SEQ ID NO: 63 (protein)
VHH: AVQLVDSGGGLVQAGGSLRLSCTASERTTFSSYTLGWFRQAPGKEREFVGGISWSGVSTDYAEFAKGRFTISRDHAANTVYLEMNSLKPEDTAVYYCAALGRYRSNWRNIGQYDYWGQGTQVTVSS
Question: B5 was tested. Which “% Platelet adhesion at 2 μg/ml” value ([2]; 2 μg/ml nanobody) did it give?
Answer: 61 ± 7%

B6: 12E3: anti-vWF nanobody, SEQ ID NO: 64 (protein)
VHH: B4 VHH with Q1E, S30N, T56S, S61A, E89G, R103S
Question: With B6 as the molecule, how does the “% Platelet adhesion at 2 μg/ml” value ([2]; 2 μg/ml nanobody) read?
Answer: 54 ± 1%

B7: 12A2-3a-12A2 (protein)
VHH: QVKLEESGGGLVQAGGALRLSCAASGRTFSYNPMGWFRQAPGKERDLVAAISRTGGSTYYPDSVEGRFTISRDNAKRMVYLQMNNLKPEDTAVYYCAAAGVRAEDGRVRTLPSEYTFWGQGTQVTVSSAAAEVQLVESGGGLVQAGGALRLSCAASGRTFSYNPMGWFRQAPGKERDLVAAISRTGGSTYYPDSVEGRFTISRDNAKRMVYLQMNNLKPEDTAVYYCAAAGVRAEDGRVRTLPSEYTFWGQGTQVTVSS
Question: With B7 as the molecule, how does the “% Platelet adhesion” value ([2]; 0.1 μg/ml nanobody, Table 23) read?
Answer: 74 ± 5%

Question: And the “% Platelet adhesion” value ([2]; 0.2 μg/ml nanobody, Table 23)?
Answer: 50 ± 3%

Question: And the “% Platelet adhesion” value ([2]; 0.3 μg/ml nanobody, Table 41)?
Answer: 10 ± 8%

Question: What about the “% Platelet adhesion” value ([2]; 0.4 μg/ml nanobody, Table 23) of the same molecule?
Answer: 33 ± 0%

Question: What about the “% Platelet adhesion” value ([2]; 0.6 μg/ml nanobody, Table 41) of the same molecule?
Answer: 4 ± 3%

B8: 12A2-GS9-12A2 (protein)
VHH: QVKLEESGGGLVQAGGALRLSCAASGRTFSYNPMGWFRQAPGKERDLVAAISRTGGSTYYPDSVEGRFTISRDNAKRMVYLQMNNLKPEDTAVYYCAAAGVRAEDGRVRTLPSEYTFWGQGTQVTVSSGGGGSGGGSEVQLVESGGGLVQAGGALRLSCAASGRTFSYNPMGWFRQAPGKERDLVAAISRTGGSTYYPDSVEGRFTISRDNAKRMVYLQMNNLKPEDTAVYYCAAAGVRAEDGRVRTLPSEYTFWGQGTQVTVSS
Question: B8 was tested. Which “% Platelet adhesion” value ([2]; 0.1 μg/ml nanobody, Table 23) did it give?
Answer: 81 ± 1%

Question: And the “% Platelet adhesion” value ([2]; 0.2 μg/ml nanobody, Table 23)?
Answer: 73 ± 1%

Question: And the “% Platelet adhesion” value ([2]; 0.4 μg/ml nanobody, Table 23)?
Answer: 40 ± 2%

B9: 12A2H4: humanised 12A2 nanobody, SEQ ID NO: 92 (protein)
VHH: EVQLVESGGGLVQPGGSLRLSCAASGRTFSYNPMGWFRQAPGKGRELVAAISRTGGSTYYPDSVEGRFTISRDNAKRSVYLQMNSLRAEDTAVYYCAAAGVRAEDGRVRTLPSEYTFWGQGTQVTVSS
Question: B9 was tested. Which “% Platelet adhesion” value ([2]; 0.5 μg/ml nanobody, Table 32) did it give?
Answer: 61 ± 1%

Question: What about the “% Platelet adhesion” value ([2]; 0.7 μg/ml nanobody, Table 31) of the same molecule?
Answer: 55 ± 1%

Question: And the “% Platelet adhesion” value ([2]; 1 μg/ml nanobody, Table 32)?
Answer: 57 ± 1%

Question: What about the “% Platelet adhesion” value ([2]; 2 μg/ml nanobody, Table 32) of the same molecule?
Answer: 46 ± 5%

B10: 12A2H1: humanised 12A2 nanobody, SEQ ID NO: 90 (protein)
VHH: B9 VHH with S78M
Question: Which “% Platelet adhesion” value ([2]; 0.5 μg/ml nanobody, Table 32) does the source give for B10 here?
Answer: 40 ± 9%

Question: What about the “% Platelet adhesion” value ([2]; 0.7 μg/ml nanobody, Table 31) of the same molecule?
Answer: 49 ± 1%

Question: And the “% Platelet adhesion” value ([2]; 1 μg/ml nanobody, Table 32)?
Answer: 43 ± 3%

Question: And the “% Platelet adhesion” value ([2]; 2 μg/ml nanobody, Table 32)?
Answer: 38 ± 5%

B11: 12A2H4-3a-12A2H4 (protein)
chain: EVQLVESGGGLVQPGGSLRLSCAASGRTFSYNPMGWFRQAPGKGRELVAAISRTGGSTYYPDSVEGRFTISRDNAKRSVYLQMNSLRAEDTAVYYCAAAGVRAEDGRVRTLPSEYTFWGQGTQVTVSSAAAEVQLVESGGGLVQPGGSLRLSCAASGRTFSYNPMGWFRQAPGKGRELVAAISRTGGSTYYPDSVEGRFTISRDNAKRSVYLQMNSLRAEDTAVYYCAAAGVRAEDGRVRTLPSEYTFWGQGTQVTVSS
Question: With B11 as the molecule, how does the “% Platelet adhesion” value ([2]; 0.3 μg/ml nanobody, Table 41) read?
Answer: 10 ± 6%

Question: What about the “% Platelet adhesion” value ([2]; 0.6 μg/ml nanobody, Table 41) of the same molecule?
Answer: 8 ± 4%

B12: 12B6-3a-12B6 (protein)
VHH: QVQLVESGGGLVQAGGALRLSCAASGRTFSYNPMGWFRQAPGKERDVVAAISRTGGSTYYARSVEGRFTISRDNAKRMVYLQMNALKPEDTAVYYCAAAGVRAEDGRVRTLPSEYNFWGQGTQVTVSSAAAEVQLVESGGGLVQAGGALRLSCAASGRTFSYNPMGWFRQAPGKERDVVAAISRTGGSTYYARSVEGRFTISRDNAKRMVYLQMNALKPEDTAVYYCAAAGVRAEDGRVRTLPSEYNFWGQGTQVTVSS
Question: Which results are given for B12?
Answer: % Platelet adhesion ([2]; 0.3 μg/ml nanobody, Table 41): 15 ± 6%; % Platelet adhesion ([2]; 0.6 μg/ml nanobody, Table 41): 8 ± 6%

B13: 12B6H2-3a-12B6H2 (protein)
VHH: B11 chain with L47V, P61A, D62R, S78M, T116N, L178V, P192A, D193R, S209M, T247N
Question: How did the “% Platelet adhesion” value ([2]; 0.3 μg/ml nanobody, Table 41) turn out when B13 was run?
Answer: 30 ± 16%

Question: What about the “% Platelet adhesion” value ([2]; 0.6 μg/ml nanobody, Table 41) of the same molecule?
Answer: 17 ± 6%
